Blank lines part the entries; values can stand above or below the binder they belong to. Primed or numbered codes have the meaning given here. Ends that are not written are not given here. Cy5.5 = Cy5.5: Cy5.5 fluorophore (fluorescent dye); Cy5.5″ = Cy5.5 fluorophore
How the values were obtained:
[1] = target: T1, Human epidermal growth factor receptor 2 (HER2) (human, UniProt P04626 23-1255); test: confocal microscopy, 10 µM FITC-labeled peptide on Flo1-HER2 cells against Q-hTERT control cells
T1 construct: whole, on cells; also called ErbB2
Procedure: Flo-1-Her2 and Q-hTERT cells were seeded with ˜7,500 cells in 12-well plates with 1.5 mm thick glass cover slides, and grown to ˜70% confluence. The cells were gently washed with cold PBS before adding the peptide. 10 μM of FITC-labeled peptide was added to each well and incubated at 4° C. for 1 hour. After incubation, the cells were washed 3× with PBS, fixed in ice-cold 4% PFA for 10 min, and washed 1× with PBS. Subsequently, the cells were embedded on microscope slides with ProLong Gold reagent containing DAPI (Invitrogen), and the slides where analyzed with a Leica TCS SP5 confocal microscope using 63× oil immersion objective (Leica Microsystems, Leider Lane IL). The FITC-labeled peptides and anti-HER2 antibody were tested in quadruplicate.
We attached a FITC label to each peptide, and imaged binding to Flo1-HER2 and Q-hTERT cells (control) using confocal microscopy. Western blot of these cells show difference in HER2 expression, FIG. 1B. We selected KSPNPRF based on the highest mean fluorescence intensity with binding to Flo1-HER2, FIG. 1C. From our model, this peptide binds to HER2 domain 3. […] The fluorescence emission peak occurs at 708 nm in the NIR spectrum. For both peptides, we achieved >98% purity with HPLC, and measured an experimental mass-to-charge (m/z) ratio on mass spectrometry of 1794.98, which agrees with expected values, FIG. 8A,B.

[2] = target: HER2 over expressed in mouse colonic neoplasia (CPC;Apc mice) (mouse) (UniProt P70424); test: in vivo NIR fluorescence endoscopy, topical peptide, n=7 adenomas in mice, target-to-background ratio
[3] = target: T1, Human epidermal growth factor receptor …; test: flow cytometry on HT29 cells, apparent dissociation constant, 0-200 nM peptide, 4 °C 1 h
Procedure: We measured the apparent dissociation constant of the HER2 peptide reagent to HT29 cells as an assessment of binding affinity. KSP*-Cy5.5 was serially diluted in PBS at concentrations of 0, 5, 10, 25, 50, 100, and 200 nM. ˜105 HT29 cells were incubated with KSP*-Cy5.5 at 4° C. for 1 hour and washed with cold PBS. The mean fluorescence intensities were measured with flow cytometry (BD® LSRII, BD Biosciences). The equilibrium dissociation constant kd=1/ka was calculated by performing a least squares fit of the data to the non-linear equation I, (I0+Imaxka[X])/([…]). I0 and Imax are the initial and maximum fluorescence intensities, corresponding to no peptide reagent and at saturation, respectively, and [X] represents the concentration of the bound peptide reagent. Graphpad prism analysis software (Graphpad Software Inc, La Jolla, Calif.) was used to calculate kd and ka.
We evaluated the binding parameters of KSP*-Cy5.5 to HT29 cells using flow cytometry.

[4] = target: T2, HER2 over expressed in mouse colonic neoplasia (CPC;Apc mice) (mouse, UniProt P70424 23-1256); test: fluorescence imaging of mouse colon after intravenous KSP*-Cy5.5, n=4 mice
T2 construct: whole, on cells; no isolated mouse HER2 was tested; also called mouse HER2

[5] = target: T2, HER2 over expressed in mouse colonic …; test: in vivo NIR fluorescence endoscopy, topical peptide, n=15 adenomas in mice, target-to-background ratio
Procedure: Mouse imaging studies were performed with approval of the University of Michigan Committee on the Use and Care of Animals (UCUCA). The mice were housed in pathogen-free conditions and supplied water ad libitum under controlled conditions of humidity (50±10%), light (12/12 hour light/dark cycle) and temperature (25° C.). Anesthesia was induced and maintained via a nose cone with inhaled isoflurane mixed with oxygen at a concentration of 2-4% at a flow rate of ˜0.5 L/min. The colon was first rinsed with tap water to remove mucous and debris. White light illumination was used first to identify anatomic landmarks, including polyps, mucosal folds, colonic segment, and distance of endoscope tip from anus, to register the in vivo images with histology. […] During imaging, we recorded the 1) distance between the endoscope tip and the anus and 2) clockwise location of each region of high intensity. […]
We evaluated specific binding of KSP*-Cy5.5 to colonic adenomas that over express HER2 in CPC; Apc mice This mouse was genetically engineered to somatically delete an Apc allele under Cre regulation, and develops polypoid and flat adenomas spontaneously in the colon. […] Imaging was performed in vivo using a small animal endoscope that is sensitive to NIR fluorescence. […]

T2 sequence (P70424 23-1256): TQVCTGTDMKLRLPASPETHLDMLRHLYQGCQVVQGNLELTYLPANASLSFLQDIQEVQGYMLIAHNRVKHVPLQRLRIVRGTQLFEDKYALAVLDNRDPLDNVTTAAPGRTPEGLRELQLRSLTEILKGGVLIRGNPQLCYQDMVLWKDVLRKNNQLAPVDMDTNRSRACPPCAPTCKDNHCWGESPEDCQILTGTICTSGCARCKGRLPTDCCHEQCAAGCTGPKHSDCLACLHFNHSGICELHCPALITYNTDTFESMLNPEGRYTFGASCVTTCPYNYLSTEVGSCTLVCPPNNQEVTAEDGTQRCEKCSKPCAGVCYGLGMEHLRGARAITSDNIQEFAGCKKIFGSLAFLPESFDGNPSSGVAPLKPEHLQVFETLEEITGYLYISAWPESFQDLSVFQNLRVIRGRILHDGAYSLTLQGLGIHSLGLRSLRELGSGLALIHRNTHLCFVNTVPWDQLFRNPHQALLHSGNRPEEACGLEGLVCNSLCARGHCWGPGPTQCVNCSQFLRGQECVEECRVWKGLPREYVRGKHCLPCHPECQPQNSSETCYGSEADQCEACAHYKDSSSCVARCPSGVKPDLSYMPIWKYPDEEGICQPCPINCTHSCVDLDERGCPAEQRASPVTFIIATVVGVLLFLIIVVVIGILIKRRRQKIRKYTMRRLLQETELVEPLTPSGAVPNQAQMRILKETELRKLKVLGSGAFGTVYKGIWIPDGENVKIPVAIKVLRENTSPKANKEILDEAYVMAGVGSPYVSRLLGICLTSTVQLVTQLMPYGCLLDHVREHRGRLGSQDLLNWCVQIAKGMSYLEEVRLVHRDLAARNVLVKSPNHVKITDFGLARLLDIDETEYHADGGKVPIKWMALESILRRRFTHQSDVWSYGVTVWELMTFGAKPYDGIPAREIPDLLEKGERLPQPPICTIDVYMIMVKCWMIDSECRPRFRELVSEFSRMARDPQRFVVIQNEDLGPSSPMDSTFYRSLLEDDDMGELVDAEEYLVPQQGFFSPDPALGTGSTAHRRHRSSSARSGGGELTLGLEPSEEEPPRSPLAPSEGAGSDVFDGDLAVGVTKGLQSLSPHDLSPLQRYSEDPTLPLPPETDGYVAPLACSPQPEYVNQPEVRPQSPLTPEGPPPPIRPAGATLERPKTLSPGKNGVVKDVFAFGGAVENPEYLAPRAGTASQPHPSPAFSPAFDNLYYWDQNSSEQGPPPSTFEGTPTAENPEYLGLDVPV
Chain of HER2 over expressed in mouse colonic neoplasia (CPC;Apc mice) (mouse) (P70424 23-1256): as above

binding result [1]: binds
B1: FITC-labeled KSPNPRF (PEP1) (peptide)
peptide: KSPNPRF
modifications: also: FITC label, site of attachment not given here
notes: also called FITC-labeled peptide

mean T/B ratio [2]: 1.46
B2: PPS*-Cy5.5 (scrambled control peptide PPSNFKR linked to Cy5.5 via GGGSK) (peptide)
peptide: PPSNFKRGGGSK(Cy5.5″)-NH2

Kd [3]: 0.021 µM
fold mean fluorescence intensity, adenomas against surrounding normal mucosa [4]: 5.03 fold
mean T/B ratio [5]: 3.64
B3: KSP*-Cy5.5 (KSPNPRF peptide labeled with Cy5.5 fluorophore via a GGGSK linker on the C-terminus) (peptide)
peptide: KSPNPRFGGGSK(Cy5.5)-NH2
notes: Synthetic L-amino-acid peptide, Fmoc solid-phase synthesis; also called HER2 peptide reagent; KSP*-Cy5.5 peptide reagent

Reference: US20180273584A1 (REGENTS OF THE UNIVERSITY OF MICHIGAN, published 2018)
